The results in this text go back to patent US20200147235A1 (AbbVie / Abbott, published 2020).

To fix the notation:
T1: Human CD98 ECD with N-terminal His-tag (human, UniProt P08195 105-529)
T1 construct: The entry includes the linker and the polyhistidine tag; also called huCD98 ECD
T1 sequence: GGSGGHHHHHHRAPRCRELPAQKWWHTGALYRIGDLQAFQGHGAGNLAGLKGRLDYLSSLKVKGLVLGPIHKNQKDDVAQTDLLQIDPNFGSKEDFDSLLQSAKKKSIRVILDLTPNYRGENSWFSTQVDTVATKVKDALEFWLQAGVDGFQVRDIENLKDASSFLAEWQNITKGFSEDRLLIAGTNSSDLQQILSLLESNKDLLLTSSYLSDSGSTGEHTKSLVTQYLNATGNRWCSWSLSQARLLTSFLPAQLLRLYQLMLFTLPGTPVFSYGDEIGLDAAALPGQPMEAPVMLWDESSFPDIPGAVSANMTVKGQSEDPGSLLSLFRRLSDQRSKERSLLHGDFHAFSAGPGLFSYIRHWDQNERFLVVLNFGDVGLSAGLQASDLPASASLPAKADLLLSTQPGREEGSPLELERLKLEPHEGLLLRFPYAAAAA

T2: Cynomolgus monkey CD98 ECD with C-terminal His-tag (SEQ ID NO: 127) (cynomolgus monkey, UniProt P08195 105-529 (human entry))
T2 construct: The entry includes the linker and the polyhistidine tag; also called cyCD98 ECD
T2 chain: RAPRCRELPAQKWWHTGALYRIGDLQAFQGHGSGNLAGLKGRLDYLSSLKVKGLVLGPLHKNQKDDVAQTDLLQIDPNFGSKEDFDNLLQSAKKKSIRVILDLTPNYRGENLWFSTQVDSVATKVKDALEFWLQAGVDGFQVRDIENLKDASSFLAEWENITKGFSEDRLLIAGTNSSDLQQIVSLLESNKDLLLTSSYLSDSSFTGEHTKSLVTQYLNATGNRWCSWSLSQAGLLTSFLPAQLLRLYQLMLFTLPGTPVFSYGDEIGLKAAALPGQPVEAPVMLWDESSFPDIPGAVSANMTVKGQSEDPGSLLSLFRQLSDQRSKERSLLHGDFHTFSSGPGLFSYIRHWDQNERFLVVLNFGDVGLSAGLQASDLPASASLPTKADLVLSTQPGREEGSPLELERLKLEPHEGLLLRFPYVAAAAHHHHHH

T3: Cynomolgus monkey CD98 ECD with C-terminal His-tag (cynomolgus monkey, UniProt P08195 105-529 (human entry))
T3 construct: The entry includes the linker and the polyhistidine tag; also called cyCD98 ECD
T3 chain: T2 chain

T4: Human CD98 ECD with C-terminal His-tag (human, UniProt P08195 105-529)
T4 construct: The entry includes the linker and the polyhistidine tag; also called huCD98 ECD
T4 sequence: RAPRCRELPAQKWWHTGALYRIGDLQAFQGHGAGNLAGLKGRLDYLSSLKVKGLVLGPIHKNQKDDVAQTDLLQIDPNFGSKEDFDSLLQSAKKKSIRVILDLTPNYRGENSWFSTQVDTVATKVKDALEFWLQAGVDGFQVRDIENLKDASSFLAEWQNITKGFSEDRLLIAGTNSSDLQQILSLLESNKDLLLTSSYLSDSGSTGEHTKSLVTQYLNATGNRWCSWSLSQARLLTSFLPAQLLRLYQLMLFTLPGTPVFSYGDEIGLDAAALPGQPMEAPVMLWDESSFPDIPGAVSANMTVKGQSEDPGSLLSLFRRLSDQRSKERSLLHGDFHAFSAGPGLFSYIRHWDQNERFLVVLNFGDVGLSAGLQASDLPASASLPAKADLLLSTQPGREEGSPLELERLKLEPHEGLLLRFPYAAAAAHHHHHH

B1: huAb104 (antibody, human IgG1, kappa, L234A L235A, V domains shown)
VH: EVQLVESGGGLVQPGGSLRLSCATSGFTFIDYYMSWVRQAPGKGLEWLGFIRNKAYGYTTEYSASVKGRFTISRDNSKSILYLQMNSLKTEDTAVYYCTRDRPAWFVYWGQGTLVTVSS
VL: DIVMTQTPLSLPVTPGEPASISCKSSQSLLYSSNQKNYLAWYLQKPGQSPQLLIYWASTRESGVPDRFSGSGSGTDFTLKISRVEAEDVGVYYCQQYYSYPYTFGGGTKVEIKR
notes: Framework re-engineered humanized clone (parent huAb3v2); also called CL-huAb104
B2: huAb106 (antibody, V domains shown)
VH: EVQLVQSGAEVKKPGASVKVSCKASGFTFSDYTMAWVRQAPGQGLEWVATIIYSGRGTYYRDAVKGRFTITRDNSTSTLYLELSSLRSEDTAVYYCARQSDHTYYYWGYFDYWGQGTMVTVSS
VL: DIVMTQTPLSLPVTPGEPASINCKSSQSLLFSGNQKNYLAWYLQKPGQSPQLLIYWASTRQSGVPDRFSGSGSGTDFTLKISRVEAEDVGIYYCQQYYDVPYTFGQGTKLEIK
notes: Framework re-engineered humanized clone (parent huAb15v1), expressed as full-length IgG
B3: huAb108 (antibody, human IgG1, kappa, L234A L235A, V domains shown)
VH: B2 VH with H102D
VL: B1 VL with S22N, Y31F, S33G, E61Q, V91I, S99D, Y100V, G106Q, V110L
notes: Framework re-engineered humanized clone (parent huAb15v2); also called CL-huAb108
B4: huAb110 (antibody, human IgG1, kappa, L234A L235A, V domains shown)
VH: B2 VH with S54D, G55A, H102D
VL: B1 VL with S22N, Y31F, S33G, E61Q, V91I, Y100S, G106Q, V110L
notes: Framework re-engineered humanized clone (parent huAb15v6); also called CL-huAb110
B5: huAb107 (antibody, V domains shown)
VH: EVQLVESGGGLVQPGGSLRLSCAASGFTFSDYTMAWVRQAPGKGLEWVATIIYSGRGTYYRDAVKGRFTISRDNAKNTLYLQMNSLRAEDTAVYYCARQSDDTYYYWGYFDYWGQGTMVTVSS
VL: B2 VL
notes: Framework re-engineered humanized clone (parent huAb15v2), expressed as full-length IgG
B6: huAb105 (antibody, V domains shown)
VH: B5 VH with D102H
VL: B2 VL
notes: as for B2
B7: huAb109 (antibody, V domains shown)
VH: B5 VH with S54D, G55A
VL: B2 VL with D99S, V100S
notes: Framework re-engineered humanized clone (parent huAb15v6), expressed as full-length IgG
B8: huAb3v1 (antibody, V domains shown)
VH: B1 VH with G16R, A23T, Y56N, G57R
VL: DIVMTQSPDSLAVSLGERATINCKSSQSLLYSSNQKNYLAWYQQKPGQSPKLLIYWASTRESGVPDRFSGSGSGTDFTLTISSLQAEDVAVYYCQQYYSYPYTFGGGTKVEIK
notes: Humanized, further engineered clone of chAb3, converted to IgG and expressed as a full-length antibody
B9: huAb3v2 (antibody, V domains shown)
VH: B1 VH with G16R, A23T
VL: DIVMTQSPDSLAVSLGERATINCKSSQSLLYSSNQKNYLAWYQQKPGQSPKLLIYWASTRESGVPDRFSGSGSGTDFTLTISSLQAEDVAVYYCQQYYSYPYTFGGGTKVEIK
notes: as for B8
B10: huAb15v2 (antibody, V domains shown)
VH: B5 VH with L11V, G16R, A75S, N77S
VL: DIVMTQSPDSLAVSLGERATINCKSSQSLLFSGNQKNYLAWYQQKPGQSPKLLIYWASTRQSGVPDRFSGSGSGTDFTLTIRSLQAEDVAIYYCQQYYDVPYTFGQGTKLEIK
notes: Humanized, further engineered clone of chAb15, converted to IgG and expressed as a full-length antibody
B11: huAb15v1 (antibody, V domains shown)
VH: B5 VH with L11V, G16R, A75S, N77S, D102H
VL: B10 VL
notes: as for B10
B12: huAb15v4 (antibody, V domains shown)
VH: B5 VH with L11V, G16R, S54T, A75S, N77S
VL: B10 VL
notes: as for B10
B13: huAb15v3 (antibody, V domains shown)
VH: B5 VH with L11V, G16R, A75S, N77S
VL: B10 VL with D99G, V100S
notes: as for B10

Changes are numbered by the printed parent chain.

The first experiment deals with T1, Human CD98 ECD with N-terminal His-tag. Kind of experiment: SPR (Biacore), recombinant CD98 ECD.
As to B1, the Kd was 2 nM, the koff is 0.00091 s⁻¹ and the kon was found to be 450000 M⁻¹ s⁻¹.

On to B2, for which the Kd is 0.16 nM, the koff turned out to be 2.2e-05 s⁻¹ and the kon came out at 140000 M⁻¹ s⁻¹.

Regarding B3, the Kd was determined as 0.55 nM, the koff stood at 4.1e-05 s⁻¹ and the kon came to 75000 M⁻¹ s⁻¹.

Take B4: the Kd turned out to be 2.3 nM, the koff turned out to be 0.0003 s⁻¹ and the kon came out at 130000 M⁻¹ s⁻¹.

As to B5, the Kd came out at 0.33 nM, the koff was 3.8e-05 s⁻¹ and the kon amounted to 110000 M⁻¹ s⁻¹.

Turning to B6, the dissociation constant (Kd) turned out to be 0.17 nM, the koff was found to be 2.4e-05 s⁻¹ and the kon stood at 140000 M⁻¹ s⁻¹.

With B7, the Kd was 1.1 nM, the koff was found to be 0.00017 s⁻¹ and the kon is 160000 M⁻¹ s⁻¹.

The target of another experiment is T2, Cynomolgus monkey CD98 ECD with …. Kind of experiment: SPR (Biacore), recombinant CD98 ECD.
Consider B1, for which the Kd was determined as 14 nM, the koff is 0.00048 s⁻¹ and the kon worked out at 34000 M⁻¹ s⁻¹.

For the molecule B2, the Kd was found to be 2.2 nM, the koff amounted to 9.5e-05 s⁻¹ and the kon is 43000 M⁻¹ s⁻¹.

For B3, the Kd is 4.6 nM, the koff was found to be 0.00014 s⁻¹ and the kon is 29000 M⁻¹ s⁻¹.

Turning to B4, the Kd was 23 nM, the koff is 0.00051 s⁻¹ and the kon came out at 23000 M⁻¹ s⁻¹.

With B5, the Kd came to 2.7 nM, the off-rate (koff) came to 8.7e-05 s⁻¹ and the kon was 33000 M⁻¹ s⁻¹.

In the case of B6, the Kd was determined as 1.4 nM, the dissociation rate constant (koff) was determined as 5.3e-05 s⁻¹ and the kon amounted to 38000 M⁻¹ s⁻¹.

Regarding B7, the Kd amounted to 12 nM, the koff amounted to 0.00031 s⁻¹ and the kon turned out to be 26000 M⁻¹ s⁻¹.

For a further experiment, the target named is T3, Cynomolgus monkey CD98 ECD with …. Kind of experiment: SPR (Biacore), antibody captured on anti-Fc surface, CD98 ECD in solution. As to the method: (§1) The binding kinetics of these purified mouse and rat monoclonal anti-CD98 antibodies for purified recombinant CD98 protein (extracellular domain. ECD) were determined by surface plasmon resonance-based measurements made on Biacore T100/T200 instruments (GE Healthcare, Piscataway, N.J.) at 25° C. using an anti-Fc capture assay approach. Binding kinetic measurements were made in the assay buffer HBS-EP+: 10 mM Hepes, pH 7.4, 150 mM NaCl, 3 mM EDTA, 0.05% Tween 20). For example, approximately 8000 RU of anti-Fc (species specific) polyclonal antibody (Thermo Fisher Scientific Inc. Rockford, Ill.) diluted in 10 mM sodium acetate (pH 4.5) was directly immobilized across a CM5 research grade biosensor chip using a standard amine coupling kit according to manufacturer's instructions and procedures at 25 μg/ml. Unreacted moieties on the biosensor surface were blocked with ethanolamine. The test antibody to be captured as a ligand was diluted in running buffer to ˜0.5 μg/mL and injected over anti-Fc surface at a flow rate of 10 μL/min, CD98 binding and dissociation were observed under a continuous flow rate of 80 μL/min. Human and cynomolgus monkey CD98 ECDs, both with a C-terminal His-tag, are used for this study (Table 3). After each cycle the anti-Fc capture surface was regenerated using 10 mM Glycine-HCl, pH 1.5. During the assay, all measurements were referenced against the capture surface alone (i.e., with no captured test antibody) and buffer-only injections (no antigen) were used for double referencing. For kinetic analysis, rate equations derived from the 1:1 Langmuir binding model were fitted simultaneously, globally and with mass transfer term included to multiple referenced antigen binding curves using Biacore T100T200 Evaluation software.
(§2) The binding kinetics of the recombinant anti-CD98 chimeric antibodies for purified recombinant CD98 protein (extracellular domain, ECD) were determined by surface plasmon resonance-based measurements, as described in the Example 4.
B8 gave a Kd of 23 nM, a koff of 0.00092 s⁻¹ and a kon of 40000 M⁻¹ s⁻¹.

In turn, B9 had a Kd of 17 nM, a koff of 0.00049 s⁻¹ and a kon of 29000 M⁻¹ s⁻¹.

As for B10, binding was put at a Kd of 2.3 nM, the koff stood at 4.8e-05 s⁻¹ and the kon was determined as 21000 M⁻¹ s⁻¹.

In turn, B11 showed a Kd of 1 nM, a koff of 2.6e-05 s⁻¹ and a kon of 26000 M⁻¹ s⁻¹.

Regarding B12, the affinity, expressed as Kd, was 2.6 nM; the koff stood at 5e-05 s⁻¹; the kon is 20000 M⁻¹ s⁻¹.

Take B13: the Kd came out at 7.6 nM, the koff was determined as 0.00014 s⁻¹ and the kon came to 18000 M⁻¹ s⁻¹.

The target of another experiment is T4, Human CD98 ECD with C-terminal His-tag. Described as above. As to the method: as §1, §2
As to B8, the affinity, expressed as Kd, was 13 nM; the koff is 0.0023 s⁻¹; the kon is 180000 M⁻¹ s⁻¹.

The molecule B9 gave a Kd of 4.9 nM, a koff of 0.0013 s⁻¹ and a kon of 260000 M⁻¹ s⁻¹.

Molecule B10 returned a Kd of 1.1 nM, a koff of 4.6e-05 s⁻¹ and a kon of 42000 M⁻¹ s⁻¹.

B11 displayed a Kd of 0.43 nM, a koff of 2.3e-05 s⁻¹ and a kon of 53000 M⁻¹ s⁻¹.

Consider B12, for which the Kd is 0.81 nM, the koff came out at 2.8e-05 s⁻¹ and the kon is 35000 M⁻¹ s⁻¹.

Turning to B13, binding was put at a Kd of 2 nM, the koff is 8.5e-05 s⁻¹ and the kon came out at 44000 M⁻¹ s⁻¹.
